Changes are numbered by the printed parent chain. Values belong to the binder of their own block, whether it stands above or below them.
What was measured:
[1] = molecular target: T1, Borealin C-terminal domain (207-280) (human, UniProt Q53HL2 207-280, biotinylated on the Avi-tag (co-expression with BirA)); test: SPR, His-tagged target on NTA chip, 2-fold dilutions of the Fab injected, 1:1 Langmuir fit [panel B, middle]
T1 construct: range 207-280; The construct carries His- and Avi-tags; Expressed in E. coli; Immobilised via neutravidin (ELISA) or His-tag/NTA chip (SPR); also called Bor-C
T1 sequence (looked up): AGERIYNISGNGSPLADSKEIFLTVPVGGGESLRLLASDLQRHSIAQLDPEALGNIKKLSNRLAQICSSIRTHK
Description: (§1) The targets were immobilized onto a nitrilotriacetic acid (NTA) sensor chip via His-tag. 2-fold serial dilutions of the Fab were injected following ligand immobilization on the sensor chip. For each kinetic assay at least five dilutions of the Fab were tested. The data were fitted using 1:1 Langmuir Model to obtain the on-rate, off-rate and the affinity (KD) of the Fab-target interaction.

[2] = molecular target: T1, Borealin C-terminal domain (207-280); test: Western blot of recombinant CPC domains, Fab as primary reagent, anti-human F(ab')2 IgG-HRP [panel A]
Description: (§2) Recombinant CPC targets Survivin-N(N-term), Borealin-N(N-term), Borealin-C(C-term) and INCENP-N(N-term) domains were run on SDS-PAGE and transferred into PVDF membrane. […] The assay was developed by using a secondary anti-human-F(ab′)2 IgG-HRP reagent
(§3) Membranes were stained with Ponceau S dye to verify correct transfer of the proteins, were briefly washed with ddH2O and blocked with 4% skimmed milk in TBS-T containing 0.05% Tween20 for 30 min. at RT on the shaker. Blocking solution was discarded and membranes were incubated with Borealin Fabs as primary detection reagents at concentration 5-10 µg/ml, in blocking buffer at 4 C O/N on the shaker. Membranes were washed 3 times with TBS-T and incubated with secondary anti-human FAB′2 specific HRP-conjugated IgG (diluted 1:10,000 in blocking buffer) for 45 minutes at RT, shaking. Membranes were washed again 3× with TBS-T, developed with ECL chemiluminescent substrate and visualized with the Biorad imaging instrument (FIG. 10).

[3] = molecular target: T2, Borealin N-terminal domain (20-88) (human, UniProt Q53HL2 20-88, biotinylated on the Avi-tag (co-expression with BirA)); test: SPR, His-tagged target on NTA chip, 2-fold dilutions of the Fab injected, 1:1 Langmuir fit [panel A]
T2 construct: range 20-88; The construct carries His- and Avi-tags; Expressed in E. coli; Immobilised via neutravidin (ELISA) or His-tag/NTA chip (SPR); also called Bor-N
T2 sequence (looked up): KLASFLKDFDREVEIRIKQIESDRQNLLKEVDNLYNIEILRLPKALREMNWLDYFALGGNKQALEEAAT
Description: as §1

[4] = molecular target: T2, Borealin N-terminal domain (20-88); test: single-point Fab ELISA, 50 nM biotinylated target on neutravidin, 200 nM Fab, protein L-HRP [panel A]
Description: (§4) To rapidly reconfirm the binding and specificity of the obtained Fabs after reformatting into the expression vectors single-point Fab ELISA was performed (FIG. 2). Briefly, 50 nM Avi-tagged targets were immobilized on the prepared NAV-coated and blocked with 0.5% BSA in PBS 96-well ELISA plates. The target coated plates were washed with appropriate buffer (TBST or PBST) and were incubated with 200 nM Fab for 20 minutes and then washed. The washed plates were incubated with protein L conjugated with HRP (1:5000 diluted in TBST) for 30 minutes. Plates were washed and the reaction was developed using the TMB chromogenic substrate (Thermofisher) and subsequently quenched with 1M HCl. Absorbance was read at 450 nm on Epoch plate reader.

[5] = molecular target: T1, Borealin C-terminal domain (207-280); test: SPR, His-tagged target on NTA chip, 2-fold dilutions of the Fab injected, 1:1 Langmuir fit [panel B, bottom]
Description: as §1

[6] = molecular target: T1, Borealin C-terminal domain (207-280); test: single-point Fab ELISA, 50 nM biotinylated target on neutravidin, protein L-HRP [panel B]
Description: as §4

[7] = molecular target: T2, Borealin N-terminal domain (20-88); test: single-point Fab ELISA, 50 nM biotinylated target on neutravidin, protein L-HRP [panel A]
Description: as §4

Sur-N = molecular target: T3, Sur-N; test: Western blot of recombinant CPC domains, Fab as primary reagent, anti-human F(ab')2 IgG-HRP [panel B]
T3 construct: Specificity lane in the Western blots; also called Survivin-N (N-term); Sur N: 1-120
Description: as §2, §3

INC-N = molecular target: T4, INC-N; test: as above
T4 construct: Specificity lane in the Western blots; also called INCENP-N (N-term); Inc: 1-58
T4 chain: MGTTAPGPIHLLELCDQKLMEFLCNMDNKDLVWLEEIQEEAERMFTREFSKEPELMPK
Description: as §2, §3

[8] = molecular target: T2, Borealin N-terminal domain (20-88); test: as above
Description: as §2, §3

[9] = molecular target: T1, Borealin C-terminal domain (207-280); test: SPR, His-tagged target on NTA chip, 2-fold dilutions of the Fab injected, 1:1 Langmuir fit [panel B, top]
Description: as §1

T3 sequence (chain, as listed by the source limits assumed): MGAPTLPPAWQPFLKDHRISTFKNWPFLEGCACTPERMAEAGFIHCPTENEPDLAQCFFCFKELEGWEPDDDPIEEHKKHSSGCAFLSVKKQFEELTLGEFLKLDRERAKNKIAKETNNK

B1: BOR-C-61 (Fab, V domains shown)
VH: EVQLVESGGGLVQPGGSLRLSCAASGFNFYSSYIHWVRQAPGKGLEWVASISSSSGSTSYADSVKGRFTISADTSKNTAYLQMNSLRAEDTAVYYCARRSGGGLDYWGQGTLVTVSS
VL: DIQMTQSPSSLSASVGDRVTITCRASQSVSSAVAWYQQKPGKAPKLLIYSASSLYSGVPSRFSGSRSGTDFTLTISSLQPEDFATYYCQQSSSSLITFGQGTKVEIKR
notes: also called BOR-C-61 Fab
Kd [1]: 8.5 nM

B3: BOR-N-49 (Fab, V domains shown)
VH: EVQLVESGGGLVQPGGSLRLSCAASGFNVSSYSIHWVRQAPGKGLEWVASIYSSSSSTYYADSVKGRFTISADTSKNTAYLQMNSLRAEDTAVYYCARRYYHYRYPLFWGWYGMDYWGQGTLVTVSS
VL: B1 VL with S92F, S93W, S94W, L95P
notes: also called BOR-N-49 Fab
binding result [4]: binds

B4: BOR-C-64 (Fab, V domains shown)
VH: EVQLVESGGGLVQPGGSLRLSCAASGFNVYYSSIHWVRQAPGKGLEWVASISSYYGSTYYADSVKGRFTISADTSKNTAYLQMNSLRAEDTAVYYCARWKWVAMDYWGQGTLVTVSS
VL: B1 VL with S91D, S92L, S93F, S94M, L95P
notes: also called BOR-C-64 Fab
Kd [5]: 0.6 nM

B7: BOR-N-50 (Fab, V domains shown)
VH: EVQLVESGGGLVQPGGSLRLSCAASGFNVYSYSIHWVRQAPGKGLEWVASIYSYSGYTYYADSVKGRFTISADTSKNTAYLQMNSLRAEDTAVYYCARSTYPHVYLYFGLDYWGQGTLVTVSS
VL: B1 VL with S92Y, S93Y, S94W, L95P, I96V
notes: also called BOR-N-50 Fab
binding result [4]: binds

B9: BOR-N-51 (Fab, V domains shown)
VH: EVQLVESGGGLVQPGGSLRLSCAASGFNVYSYSIHWVRQAPGKGLEWVASIYSSYSYTSYADSVKGRFTISADTSKNTAYLQMNSLRAEDTAVYYCARKYHFKPTYWGAMDYWGQGTLVTVSS
VL: DIQMTQSPSSLSASVGDRVTITCRASQSVSSAVAWYQQKPGKAPKLLIYSASSLYSGVPSRFSGSRSGTDFTLTISSLQPEDFATYYCQQSSLYYPLTFGQGTKVEIKR
notes: also called BOR-N-51 Fab
binding result [4]: binds

Further lines, with some results ahead:

Kd [3]: 0.4 nM
B2: BOR-N-48 (Fab, V domains shown)
VH: EVQLVESGGGLVQPGGSLRLSCAASGFNFSYSSIHWVRQAPGKGLEWVASIYPYSGSTYYADSVKGRFTISADTSKNTAYLQMNSLRAEDTAVYYCARKQVSGWWWYYGFDYWGQGTLVTVSS
VL: B1 VL with S92Y, S93W, S94W, L95P
notes: also called BOR-N-48 Fab
binding result [2]: no binding (tested: 5-10 ug/ml (the text prints 'lg/ml'))

binding result [6]: no binding (tested: 200 nM)
B5: BOR-C-58 (Fab, V domains shown)
VH: EVQLVESGGGLVQPGGSLRLSCAASGFNVSSYSIHWVRQAPGKGLEWVASISPYYGYTSYADSVKGRFTISADTSKNTAYLQMNSLRAEDTAVYYCARHYYYGFSWFSSGYAMDYWGQGTLVTVSS
VL: B1 VL with S91G, L95P
notes: also called BOR-C-58 Fab

binding result [7]: no binding (tested: 200 nM)
B6: BOR-N-65 (Fab, V domains shown)
VH: EVQLVESGGGLVQPGGSLRLSCAASGFNFSSSSIHWVRQAPGKGLEWVASISSSSGSTSYADSVKGRFTISADTSKNTAYLQMNSLRAEDTAVYYCARESSQTKKYWYWVVQWYTAMDYWGQGTLVTVSS
VL: B1 VL with S91Y, S93Q, S94W
notes: also called BOR-N-65 Fab

Kd [9]: 11.6 nM
B8: BOR-C-56 (Fab, V domains shown)
VH: EVQLVESGGGLVQPGGSLRLSCAASGFNISSSSIHWVRQAPGKGLEWVAYISSYSGSTYYADSVKGRFTISADTSKNTAYLQMNSLRAEDTAVYYCARYYHSPLWYYSYSGMDYWGQGTLVTVSS
VL: B9 VL with S91D, S92Y, L93S, Y94W, Y95S, L97I
notes: also called BOR-C-56 Fab
binding result (Sur-N): no binding (tested: 5-10 ug/ml (the text prints 'lg/ml'))
binding result (INC-N): no binding (tested: 5-10 ug/ml (the text prints 'lg/ml'))
binding result [8]: no binding (tested: 5-10 ug/ml (the text prints 'lg/ml'))

— patent US20250127814A1 (UNIVERSITY OF CHICAGO, published 2025)
